Results taken from US11458141B2, “Aryl hydrocarbon receptor (AhR) agonists for the prevention and treatment of inflammatory disorders” (The Johns Hopkins University, priority 2017, dated 2022).

Target: T1, AHR (Mus musculus, UniProt P30561)
T1 construct: from tissue; host or cells: mouse intestine (ileum / intestinal mucosa), in vivo
T1 sequence (P30561 10-848): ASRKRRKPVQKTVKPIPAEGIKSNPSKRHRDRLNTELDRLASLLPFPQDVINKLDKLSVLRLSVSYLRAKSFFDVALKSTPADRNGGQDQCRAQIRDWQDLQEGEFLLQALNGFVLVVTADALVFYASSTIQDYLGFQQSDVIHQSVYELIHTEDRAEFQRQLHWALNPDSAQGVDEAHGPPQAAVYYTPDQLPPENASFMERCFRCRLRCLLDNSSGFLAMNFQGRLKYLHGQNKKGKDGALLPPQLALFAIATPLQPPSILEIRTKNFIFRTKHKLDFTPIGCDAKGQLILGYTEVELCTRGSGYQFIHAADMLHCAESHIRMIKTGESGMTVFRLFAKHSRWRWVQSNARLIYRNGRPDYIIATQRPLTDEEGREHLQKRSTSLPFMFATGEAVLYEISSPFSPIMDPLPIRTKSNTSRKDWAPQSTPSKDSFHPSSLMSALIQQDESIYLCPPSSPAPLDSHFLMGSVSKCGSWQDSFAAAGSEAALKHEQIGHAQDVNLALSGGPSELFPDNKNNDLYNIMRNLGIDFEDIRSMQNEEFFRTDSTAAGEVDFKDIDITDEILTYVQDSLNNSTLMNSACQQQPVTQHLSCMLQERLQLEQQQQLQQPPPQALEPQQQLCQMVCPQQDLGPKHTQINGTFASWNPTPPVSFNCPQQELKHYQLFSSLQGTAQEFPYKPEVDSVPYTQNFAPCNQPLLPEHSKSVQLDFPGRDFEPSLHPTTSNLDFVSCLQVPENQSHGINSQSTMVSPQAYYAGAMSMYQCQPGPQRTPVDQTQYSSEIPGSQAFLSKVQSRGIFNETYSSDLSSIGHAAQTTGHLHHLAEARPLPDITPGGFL
Assay: AHR activation in mice by breast milk components (preliminary data)
Format: in vivo
Source text: iii. Other effects of breast milk. Although it is shown that breast milk inhibits TLR4 signaling in part via AHR activation (FIG. 15), potential AHR ligands within breast milk have not yet been thoroughly examined.

- AHR activation: can activate AHR in mice
B1: epidermal growth factor (EGF): molecule enriched within breast milk shown to prevent NEC (protein, UniProt P01133 23-1207, looked up)
Pro-epidermal growth factor: PQHWSCPEGTLAGNGNSTCVGPAPFLIFSHGNSIFRIDTEGTNYEQLVVDAGVSVIMDFHYNEKRIYWVDLERQLLQRVFLNGSRQERVCNIEKNVSGMAINWINEEVIWSNQQEGIITVTDMKGNNSHILLSALKYPANVAVDPVERFIFWSSEVAGSLYRADLDGVGVKALLETSEKITAVSLDVLDKRLFWIQYNREGSNSLICSCDYDGGSVHISKHPTQHNLFAMSLFGDRIFYSTWKMKTIWIANKHTGKDMVRINLHSSFVPLGELKVVHPLAQPKAEDDTWEPEQKLCKLRKGNCSSTVCGQDLQSHLCMCAEGYALSRDRKYCEDVNECAFWNHGCTLGCKNTPGSYYCTCPVGFVLLPDGKRCHQLVSCPRNVSECSHDCVLTSEGPLCFCPEGSVLERDGKTCSGCSSPDNGGCSQLCVPLSPVSWECDCFPGYDLQLDEKSCAASGPQPFLLFANSQDIRHMHFDGTDYGTLLSQQMGMVYALDHDPVENKIYFAHTALKWIERANMDGSQRERLIEEGVDVPEGLAVDWIGRRFYWTDRGKSLIGRSDLNGKRSKIITKENISQPRGIAVHPMAKRLFWTDTGINPRIESSSLQGLGRLVIASSDLIWPSGITIDFLTDKLYWCDAKQSVIEMANLDGSKRRRLTQNDVGHPFAVAVFEDYVWFSDWAMPSVMRVNKRTGKDRVRLQGSMLKPSSLVVVHPLAKPGADPCLYQNGGCEHICKKRLGTAWCSCREGFMKASDGKTCLALDGHQLLAGGEVDLKNQVTPLDILSKTRVSEDNITESQHMLVAEIMVSDQDDCAPVGCSMYARCISEGEDATCQCLKGFAGDGKLCSDIDECEMGVPVCPPASSKCINTEGGYVCRCSEGYQGDGIHCLDIDECQLGEHSCGENASCTNTEGGYTCMCAGRLSEPGLICPDSTPPPHLREDDHHYSVRNSDSECPLSHDGYCLHDGVCMYIEALDKYACNCVVGYIGERCQYRDLKWWELRHAGHGQQQKVIVVAVCVVVLVMLLLLSLWGAHYYRTQKLLSKNPKNPYEESSRDVRSRRPADTEDGMSSCPQPWFVVIKEHQDLKNGGQPVAGEDGQAADGSMQPTSWRQEPQLCGMGTEQGCWIPVSSDKGSCPQVMERSFHMPSYGTQTLEGGVEKPHSLLSANPLWQQRALDPPHQMELTQ
modifications: Pro-epidermal growth factor
